In patent US20180214548A1 (SHANGHAI YUNYI HEALTHCARE AND TECHNOLOGY, published 2018):

Tests used:
[1] = biological target: T1, human PD-1^ECD-hFc protein (Immunogen A) (human, UniProt Q15116 25-167); test: ELISA, coated human PD-1ECD-hFc; antibody 0.01 nM
T1 construct: Biotinylated for the Octet assay; also called PD-1-hFc; hPD-1^ECD-hFc; not shown: human IgG Fc fragment (hFc)
Experimental: (§1) 100 uL of the diluted recombinant proteins were added to each well of 96-well plate. The plates were sealed with plastic film and incubated at 4° C. overnight. The plates were washed twice with wash buffer (PBS+0.01% (v/v) Tween20), and incubated with blocking buffer (PBS+0.01% (v/v) Tween20+1% (w/w) BSA) at room temperature for 2 hours. The blocking buffer was aspirated away, and 100 uL of purified anti-PD-1 antibodies were added to each well and incubated for 2 hours at 37° C. The plates were washed three times with wash buffer (PBS+0.01% (v/v) Tween20). HRP-conjugated secondary antibody (Sigma) was added to each well and incubated for 2 hours at 37° C. After the plates were washed three times with wash buffer, 100 uL TMB substrate was added to each well and incubated for 30 minutes at room temperature. 100 uL stop solution (0.1N HCl) was added to each well to stop the reaction. The absorbance at 450 nm was measured with an ELISA plate reader (384plus SpectraMax, Molecular Devices).

[2] = biological target: T1, human PD-1^ECD-hFc protein (Immunogen A); test: ELISA, coated human PD-1ECD-hFc; antibody 10 nM
Experimental: as §1

B7-1 [3] = biological target: T2, B7-1 (human, UniProt P33681 35-242); test: ELISA on coated protein (Table 9)
T2 sequence (looked up): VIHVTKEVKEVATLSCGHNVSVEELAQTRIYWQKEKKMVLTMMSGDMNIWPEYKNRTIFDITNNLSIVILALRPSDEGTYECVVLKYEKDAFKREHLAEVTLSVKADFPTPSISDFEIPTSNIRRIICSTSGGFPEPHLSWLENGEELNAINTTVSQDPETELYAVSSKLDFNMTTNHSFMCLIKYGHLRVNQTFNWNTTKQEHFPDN
Experimental: as §1

CD28 [4] = biological target: T3, CD28 (human, UniProt P10747 19-152); test: ELISA on coated protein (Table 9)
T3 sequence (P10747 19-152 limits assumed): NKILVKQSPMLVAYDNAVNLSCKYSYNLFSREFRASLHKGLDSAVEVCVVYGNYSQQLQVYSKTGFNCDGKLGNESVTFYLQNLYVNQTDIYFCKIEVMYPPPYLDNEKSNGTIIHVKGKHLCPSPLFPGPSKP
Experimental: as §1

CTLA4 [5] = biological target: T4, CTLA4 (human, UniProt P16410 37-162, limits assumed); test: ELISA on coated protein (Table 9)
T4 sequence (looked up): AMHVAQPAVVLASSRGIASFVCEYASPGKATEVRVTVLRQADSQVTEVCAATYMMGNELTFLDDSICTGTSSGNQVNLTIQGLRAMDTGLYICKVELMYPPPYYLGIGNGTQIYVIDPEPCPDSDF
Experimental: as §1

ICOS [6] = biological target: T5, ICOS (human, UniProt Q9Y6W8 21-140, limits assumed); test: ELISA on coated protein (Table 9)
T5 sequence (looked up): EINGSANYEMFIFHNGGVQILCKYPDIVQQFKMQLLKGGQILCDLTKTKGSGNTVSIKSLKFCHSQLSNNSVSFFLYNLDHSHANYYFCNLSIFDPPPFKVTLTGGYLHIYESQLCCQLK
Experimental: as §1

[7] = biological target: T1, human PD-1^ECD-hFc protein (Immunogen A); test: ELISA, coated human PD-1ECD-hFc; antibody 0.1 nM
Experimental: as §1

[8] = biological target: T6, full length human PD-1 on cells (human, UniProt Q15116 25-288); test: flow cytometry, CHO-K1-hPD-1 cells; antibody 0.1 nM
T6 construct: Also used here for PD-1 on human T cells/PBMC; also called CHO-K1-hPD-1; hPD-1
T6 sequence (Q15116 25-288 limits assumed): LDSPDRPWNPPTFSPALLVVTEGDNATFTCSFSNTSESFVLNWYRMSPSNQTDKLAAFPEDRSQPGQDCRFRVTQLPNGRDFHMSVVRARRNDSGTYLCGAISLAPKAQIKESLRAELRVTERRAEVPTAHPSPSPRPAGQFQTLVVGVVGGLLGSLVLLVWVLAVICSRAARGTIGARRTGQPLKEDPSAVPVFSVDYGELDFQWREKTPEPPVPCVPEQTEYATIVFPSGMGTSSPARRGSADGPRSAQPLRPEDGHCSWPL
From the text: CHO-K1 cells were stably transfected with pIRES plasmid containing the nucleic acid sequence encoding full length human PD-1 (see Example 2, step 2) to generate CHO-K1 cells stably expressing human PD-1 (herein referred to as CHO-K1-hPD-1 cells). Other CHO-K1 were stably transfected with pIRES plasmid containing the nucleic acid sequence encoding full length cyno PD-1 to generate CHO-K1 cells stably expressing cyno PD-1 (herein referred to as CHO-K1-cPD-1 cells). CHO-K1-hPD-1 and CHO-K1-cPD-1 cells were cultured and expanded in T-75 culture flasks to 90% confluence. The culture media was aspirated, and the cells were washed twice with HBSS (Hanks Balanced Salt Solution, Invitrogen). The cells were treated with enzyme-free cell dissociation solution (Versene solution, Invitrogen) and collected. The cells were then washed twice with HBSS, cell counts were determined, and cells were resuspended with HBSS at 2×10⁶ cells/mL. Goat serum was added to the cell suspension to a final concentration of 1%, and the cells were blocked for 30 minutes on ice and then washed twice with HBSS. The cells were collected after centrifugation and resuspended in FACS buffer (HBSS+1% BSA, v/v) at 2×10⁶ cells/mL. 100 uL of the cell suspension were then added to each well of 96-well plate. 100 uL of purified anti-PD-1 antibodies from Example 2 were added to each well of the 96-well plate and incubated for 2 hours on ice. […] The samples were washed three times with FACS buffer, and 100 uL fixation buffer (4% paraformaldehyde v/v) were added to each well and incubated for 10 minutes. The cells were then washed twice with FACS buffer and resuspended in 100 uL FACS buffer. The mean fluorescence intensity (MFI) was determined using FACS Calibur (BD), and the results are shown in FIGS. 7-8 and in Tables 10-11.

B7-1 [9] = biological target: T2, B7-1; test: ELISA, coated protein 1 ug/mL; antibody concentration not stated
Experimental: as §1

CD28 [10] = biological target: T3, CD28; test: as above
Experimental: as §1

CTLA4 [11] = biological target: T4, CTLA4; test: as above
Experimental: as §1

[12] = biological target: T1, human PD-1^ECD-hFc protein (Immunogen A); test: as above
Experimental: as §1

ICOS [13] = biological target: T5, ICOS; test: as above
Experimental: as §1

[14] = biological target: T7, cyno PD-1^ECD-hFc protein (cyno monkey, UniProt B0LAJ3 25-167); test: ELISA, coated cyno PD-1ECD-hFc; antibody 0.1 nM
T7 construct: Prepared by the method for Immunogen A; also called Cyno Monkey PD-1^ECD-hFc; cyno monkey PD-1-hFc; not shown: human IgG Fc fragment (hFc) and its junction to the ECD
T7 sequence (B0LAJ3 entry or part of it limits assumed): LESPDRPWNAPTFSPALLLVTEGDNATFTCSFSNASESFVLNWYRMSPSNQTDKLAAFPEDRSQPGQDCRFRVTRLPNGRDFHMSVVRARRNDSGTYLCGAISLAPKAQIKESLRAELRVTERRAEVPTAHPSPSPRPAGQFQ
Experimental: as §1

T1 sequence (Q15116 25-167): as the sequence (B0LAJ3 entry or part of it limits assumed) above, with E2D, A10P, L19V, A35T, R75Q counted along it

Row | Binder | OD450 nm [1] | OD450 nm [2] | binding result (B7-1 [3]) | binding result (CD28 [4]) | binding result (CTLA4 [5]) | binding result (ICOS [6]) | OD450 nm [7] | Mean fluorescence intensity [8] | OD450 nm (B7-1 [9]) | OD450 nm (CD28 [10]) | OD450 nm (CTLA4 [11]) | OD450 nm [12] | OD450 nm (ICOS [13]) | OD450 nm [14]
1 | chimeric anti-PD-1 antibody 21G8F11 (antibody, V domains shown, Purified from hybridoma of Harbour H2L2 mice: human variable regions, rat constant regions) VH: EVQLLESGGGLAQPGGSLRLSCAASGFSFNTYLMHWVRQAPGKGLEWVSAISGGGGNTYYADSVKGRFTISRDNSKNTLYLQMNSLRAEDTAVYYCAKENRIPVAPFDYWGQGTLVTVSS VL: DIQMTQSPSTLSASVGDRVTITCRASQSISTWLAWYQQKPGKAPKLLIYKASSLESGVPSRFSGSGSGTEFTLTISSLQPDDLATYYCQQYNSFSWTFGQGTKVEIK | 0.669 | 2.87 | no binding | no binding | no binding | no binding | 1.77 | 22.8 | 0.154 | 0.144 | 0.091 | 2.25 | 0.128 | 0.972
2 | chimeric anti-PD-1 antibody 76G5B3 (antibody, V domains shown, Purified from hybridoma of Harbour H2L2 mice: human variable regions, rat constant regions) VH: QVQLVESGGGVVQPGRSLRLSCAASGFTFSDYGFHWVRQAPGKGLEWVAVIWYDGSNEYYTDSVKGRFTISRDNSKNTLYLQMNSLRAEDTAMYFCVVNPFDYWGQGTLVTVSS VL: DIQMTQSPSSLSAFVGDRVTITCRASQGINHYLAWYQQKPGKAPNLLILAASTLLSGVPSRFGGRGSGTDFTLIISSLQPEDVATYYCQKYDSAPYTFGQGTKLEIK | 0.65 | 3.12 | no binding | no binding | no binding | no binding | 2.43 | 36.2 | 0.271 | 0.061 | 0.135 | 2.76 | 0.173 | 0.56
3 | chimeric anti-PD-1 antibody 32B5C7 (antibody, V domains shown, Purified from hybridoma of Harbour H2L2 mice: human variable regions, rat constant regions) VH: EVQLLESGGGLVQPGGSLRLSCAASGFTFSSYAMSWVRQAPGKGLEWVSTISGSGGTTYYADSVKGRFTISRDNSKNTLYLQMNSLRAEDTAVYYCTLTGDPDYWGQGTLVTVSS VL: EIVLTQSPATLSLSPGERATLSCRASQSVSSYLAWYQQKPGQAPRLLIYDASKRATGIPARFSGSGSGTDFTLTISSLEPEDFAVYYCQQRNNWPLTFGGGTKVEIK | 0.55 | 3.14 | no binding | no binding | no binding | no binding | 2.11 | 13.2 | 0.36 | 0.062 | 0.172 | 2.69 | 0.483 | 0.29
